6 molecules from article PMC2424043, “Organelle-specific isoenzymes of plant V-ATPase as revealed by in vivo-FRET analysis” (BMC Cell Biology, 2008) can be followed below.

The chains are these.
T1: VHA-c"1 (V-ATPase proteolipid subunit c", isoform 1) fused to CFP or YFP (A. thaliana, UniProt Q9SZY7 1-180)
T1 construct: VHA-c"1, A. thaliana, At4g32530, open reading frame without the stop codon; One molecule for the CFP and the YFP fusion; also called VHA-c"-CFP; VHA-c"-YFP; source: A. thaliana mesophyll protoplasts, transiently transfected, in living cells; not shown: CFP or YFP, C-terminal, kept
T1 sequence (looked up): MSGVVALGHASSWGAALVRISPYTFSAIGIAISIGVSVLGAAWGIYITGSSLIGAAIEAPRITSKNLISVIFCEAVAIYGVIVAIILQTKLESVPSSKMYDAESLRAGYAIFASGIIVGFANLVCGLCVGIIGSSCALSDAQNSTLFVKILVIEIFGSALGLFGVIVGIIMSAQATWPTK

B1: VHA-c_(trunc) (third and fourth helices of VHA-c3) fused to CFP (domain or fragment, A. thaliana, UniProt P0DH93 80-164, looked up)
chain: NPKAKSYYLFDGYAHLSSGLACGLAGLSAGMAIGIVGDAGVRANAQQPKLFVGMILILIFAEALALYGLIVGIILSSRAGQSRAE
notes: VHA-c aa 80-164 (helices 3 and 4 of VHA-c3), A. thaliana; Intermediate construct of the hybrid in vector 35S-CFP-C; also called truncated VHA-c; truncated VHA-c-CFP; source: A. thaliana mesophyll protoplasts, transiently transfected, in living cells; not shown: CFP, C-terminal, kept
B2: VHA-e2 (V-ATPase subunit e, isoform 2) fused to CFP or YFP (natural protein, A. thaliana, UniProt Q9SZ13 1-70, looked up)
chain: MAFVVTSLIFAVVGIIASICTRICFNKGPSTNLLHLTLVITATVCCWMMWAIVYIAQMNPLIVPILSEVE
notes: VHA-e2, A. thaliana, At4g26710, open reading frame without the stop codon; One molecule for the CFP and the YFP fusion; also called VHA-e isoform 2; VHA-e2-CFP; source: A. thaliana mesophyll protoplasts, transiently transfected, in living cells; not shown: CFP or YFP, C-terminal, kept
B3: VHA-e1 (V-ATPase subunit e, isoform 1) fused to CFP or YFP (natural protein, A. thaliana, UniProt Q9FLN5 1-70, looked up)
chain: MGFLITTLIFVVVGIIASLCVRICCNRGPSTNLLHLTLVITATVCCWMMWAIVYIAQMNPLIVPILSETE
notes: VHA-e1, A. thaliana, At5g55290, open reading frame without the stop codon; One molecule for the CFP and the YFP fusion; also called VHA-e isoform 1; AtVHA-e1; source: A. thaliana mesophyll protoplasts, transiently transfected, in living cells; not shown: CFP or YFP, C-terminal, kept
B4: VHA-c"_(trunc) (third and fourth helices of VHA-c"1) fused to CFP (domain or fragment, A. thaliana, UniProt Q9SZY7 88-180, looked up)
chain: QTKLESVPSSKMYDAESLRAGYAIFASGIIVGFANLVCGLCVGIIGSSCALSDAQNSTLFVKILVIEIFGSALGLFGVIVGIIMSAQATWPTK
notes: VHA-c"1 aa 88-180 (helices 3 and 4), A. thaliana; Intermediate construct of the hybrid in vector 35S-CFP-C; fused to the C-terminus of the fluorescent protein; also called truncated VHA-c"; VHA-c"1_(trunc); source: A. thaliana mesophyll protoplasts, transiently transfected, in living cells; not shown: CFP, N-terminal, kept
B5: VHA-c3 (V-ATPase proteolipid subunit c, isoform 3) fused to CFP or YFP (natural protein, A. thaliana, UniProt P0DH93 1-164, looked up)
chain: MSTFSGDETAPFFGFLGAAAALVFSCMGAAYGTAKSGVGVASMGVMRPELVMKSIVPVVMAGVLGIYGLIIAVIISTGINPKAKSYYLFDGYAHLSSGLACGLAGLSAGMAIGIVGDAGVRANAQQPKLFVGMILILIFAEALALYGLIVGIILSSRAGQSRAE
notes: VHA-c3, A. thaliana, At4g38920, open reading frame without the stop codon; One molecule for the CFP and the YFP fusion; vectors 35S-CFP-NosT and 35S-YFP-NosT; List of constructs in Additional file 4; also called VHA-c-CFP; VHA-c-YFP; source: A. thaliana mesophyll protoplasts, transiently transfected, in living cells; not shown: CFP or YFP, C-terminal, kept

Holding throughout (test): FRET or BRET; in vivo FRET by sensitized acceptor emission (confocal laser scanning microscopy) in co-transfected A. thaliana mesophyll protoplasts; CFP fusion as donor, YFP fusion as acceptor; a FRET value of 8-10% is taken as background
A general note: BRET reads energy transfer from a luciferase to a nearby fluorophore.

In series [1] the target is VHA-a-YFP (Mesembryanthemum crystallinum V-ATPase subunit a fused to YFP) (Mesembryanthemum crystallinum).
The target is the same in series [2]. This is another data set of the same source.
The target in series [3] is B5. The conditions noted are these: partners not purified.
Series [4] deals with T1, VHA-c"1 (V-ATPase proteolipid subunit …). The conditions noted are these: partners not purified.
Series [5] deals with the molecule itself.

Read-outs that look alike come from different tables or passages of the source.

As for “VHA-A-CFP (V-ATPase catalytic subunit A fused to CFP) (from UniProt O23654 1-623) (natural protein)”, in series [1], the FRET efficiency amounted to 44.8.
Turning to B1, the FRET efficiency in series [2] was 40.2%; in series [3], 40.3%; in series [4], 46.2%.
Regarding B2, the figures for the FRET efficiency in series [2], in series [3] and in series [4] were 20%, approximately 20% and 20%, respectively.
With B3, the results for the FRET efficiency in series [2] and in series [3] were 20% and approximately 20%, respectively.
With B4, the FRET efficiency in series [4] is 14.8%.
With B5, the FRET efficiency in series [5] was found to be 20.8%.
